Reference: the supplement of paper PMC9170038

Test system: MS2 coat protein
Experiment: apparent KD of MS2 coat protein; designed switch direction (-1 OFF switch, 1 ON switch): -1; higher = weaker reporter binding
In short: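 Normalised cluster fluorescence was curve-fitted, and each design's median over clusters is its apparent KD. Before this, SNAP-549-labelled MS2 coat protein was titrated from 0.7 or 1.5 nM, doubling to 3 µM, over RNA switches transcribed on Illumina chips by stalled E. coli RNA polymerase. Titrations had no input, 200 uM small-molecule ligand, or an oligonucleotide input, and steps lasted 0.8–1.5 h (lowest) to 10–20 min (highest).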

[1] = input ligand: microRNA oligo, concentration not stated
[2] = Eterna round: R95, input ligand: FMN 200 uM
[3] = Eterna round: R95, input ligand: microRNA oligo, concentration not stated
[4] = Eterna round: R95, input ligand: none

| Sequence | apparent KD of MS2 coat protein (input ligand: FMN 200 uM) [nM] | apparent KD of MS2 coat protein [1] [nM] | apparent KD of MS2 coat protein (input ligand: none) [nM] | apparent KD of MS2 coat protein [2] [nM] | apparent KD of MS2 coat protein [3] [nM] | apparent KD of MS2 coat protein [4] [nM] |
| --- | --- | --- | --- | --- | --- | --- |
| UCAGUUUUGCGAGGAUAUCGACCAUUCCUCUUUACAUGAGGAUCACCCAUGUGCUUAUCCUACAACGAGAAGGCGCUCAUACUC [JR_ExcNG2_Sub065] (Eterna round: R96, puzzle: Exclusion NG 2) | 543 | 580 | 574 | – | – | – |
| CUGAGGUAGCGGUCCUAUGACAUGAGGAUCACCCAUGUACCUUGCUUUGAGCUUUUUGCUCGUCUUAUGAUUCUCGG [JL Atriat mod 6] (puzzle: Sensor v3, turn-off variant 1) | – | – | – | 472 | 283 | 462 |
| ACAUGAGGAUCACCCAUGUAAACAUGAUGGCUGAUGUAGAGCUAGGAUAUGAGUGGCUUUCUAUCUCAGAAGGAGCUUGACUGG [Deportation 43 - Jieux - Exclusion NG 3] (Eterna round: R96, puzzle: Exclusion NG 3) | 30.8 | 22.8 | 35.7 | – | – | – |
| GAAAGGUGAGGAUAUACACUGCGGUGUAGUCCUCAUAAAAGACAUGAGGAUCACCCAUGUAGAAGGCACAUAAA [Rirereis] (puzzle: Exclusion 2) | – | – | – | 96 | 32.8 | 27.5 |
| ACGUGAUAUCUGUCGGUGGACAUGAGGAUCACCCAUGUAAGCUUUUUGCUCGUCUUACAACCCGGUGACAGACCUUC [Essodiis] (puzzle: Sensor v3, turn-off variant 1) | – | – | – | 138 | 275 | 166 |
| UUUUAGUAAGGAUAUGGUUAGAUCUACUUCGGUAGAUCUAACCAGAAGGUACAUGAGGAUCACCCAUGUAGAUA [Mod of Brourd 19 - Jieux - Exclusion 4] (Eterna round: R97, puzzle: Exclusion 4) | 25.2 | – | 25.3 | – | – | – |
| AGUAGUUGUUUCCGUUCUUACAUGAGGAUCACCCAUGUUUCUUGUCGUGCUCGCGUUGCUCGUCAGACUUCCUGUUG [salish99_TOv1_r3_063] (Eterna round: R96, puzzle: Sensor v3, turn-off variant 1) | 87.5 | 49.5 | 76.6 | – | – | – |
| AGUAGUUGUUUCCGUUCUUACAUGAGGAUCACCCAUGUUUCUUGUCGUGCUCGCGUUGCUCGUCAGACUUCCUGUUG [salish99_TOv1_r3_063] (puzzle: Sensor v3, turn-off variant 1) | – | – | – | 87.2 | 102 | 123 |
| GGUUGGCGAGGAUAUACAUGAGGAUCACCCAUGUGAGAGAAAAAAGUGAGGAAGAAAAGUAGAAGGCGUUGACG [salish99_ex3_r3_052] (puzzle: Exclusion 3) | – | – | – | 66.2 | 48.3 | 42.8 |
| CUUUUGUGAGGAUAUCAGGUGUGCUAGCGUACUGGUACAUCUGAGAAGGCACAUGAGGAUCACCCAUGUUUCUA [Mat - Exclusion 4 - Mod of JL - D38] (puzzle: Exclusion 4) | – | – | – | – | 64 | – |
| GACUGCCGAGGAUAUACAUGAGGAUCACCCAUGUGCUUCAGCAUUUUUUAAUGCAUGGGUAGAAGGCGGUAGUU [LRO-Excl3-14] (puzzle: Exclusion 3) | – | – | – | – | 31.5 | – |
| AGCUAACGAACAGGAUAUCCAAAGCGAUAGCAGGGAGAAGGGUUCAGAACUUGAGGAUCACCCAAGUGGGCUGAGCUCGGGAAA [Mutated MS2 EX1.3] (Eterna round: R96, puzzle: Exclusion NG 1) | 12 | 12.6 | 20.9 | – | – | – |
| AAAUAAGAAGGAUAUACAAAUUAAAAGGUCCUUAAGGCAAGACAUGAGGAUCACCCAUGUAGAAGGUCUGAAAA [Teati] (puzzle: Exclusion 2) | – | – | – | 39.5 | 23 | 22.6 |
| ACCAGUAUAUGGAGAUUUUACAUGAGGAUCACCCAUGUUGGGACAGCUUUUUGCUUGUCUUAUCCUACUUUGUGUGU [Design #3] (Eterna round: R97, puzzle: Sensor, turn-off variant 1) | 32.2 | – | 36 | – | – | – |
| GCCGAUUAAGUCAGGAUAUACCUAUGGAUACAUAGGUAGAAGGGACAUGAGGAUCACCCAUGUUCCUCAGCGGC [Fiskers BMX 4 - 14] (puzzle: Brourd's mod of Exclusion 4) | – | – | – | – | 14.5 | – |
| UGAGGACAUGAGGAUCACCCAUGUAAGGAUAUGCGGAGAGUUUGGAGAGGUUGAGGAGGCAGAAGGUACAGGAU [JR_Exclu1_Sub047] (puzzle: Exclusion 1) | – | – | – | – | 49.2 | – |
| ACAGUGUUAGGAUAUGUGUGAGUUAGUCUCGACUAGUCGAUGCAGAAGGAACAUGAGGAUCACCCAUGUAGAUC [EX4 #80] (Eterna round: R97, puzzle: Exclusion 4) | 136 | – | 64 | – | – | – |
| GUGGUGACAGGAUAUACAUGAGGAUCACCCAUGUGAGGAGGAGGAGAGAGGUGAAGGAGUAGAAGGGUCAGAGA [JR_Exclu3_Sub025] (puzzle: Exclusion 3) | – | – | – | 102 | 91.5 | 106 |

| Sequence | apparent KD of MS2 coat protein (input ligand: FMN 200 uM) [nM] | apparent KD of MS2 coat protein [1] [nM] | apparent KD of MS2 coat protein (input ligand: none) [nM] | apparent KD of MS2 coat protein [2] [nM] | apparent KD of MS2 coat protein [3] [nM] | apparent KD of MS2 coat protein [4] [nM] |
| --- | --- | --- | --- | --- | --- | --- |
| CUGUUUUUCGCAGGAUAUGCUCCUCCAUUAUUUGCAGAAGGGCGUUAAACAUGAGGAUCACCCAUGUAUGGUAAUGACUAUUGC [JR_ExcNG1_Sub066] (Eterna round: R96, puzzle: Exclusion NG 1) | 27.4 | 12.6 | 19.6 | – | – | – |
| UAUUAGCAAGCAAGAUCCCACAUGAGGAUCACCCAUGUGCUCGUCGCAUCCAGAAUUACUGGGUGCGCUCGUCUUAU [Winner reversed engineered 16] (Eterna round: R97, puzzle: Sensor, turn-off variant 1) | 168 | – | 169 | – | – | – |
| UUUAAUUUUUUUUUUUUACAAGCUUUUUGCUCGUCUUAUACAUGAGGAUCACCCAUGUGGAUGGGAGGUAAAUUAUC [JMF 74] (puzzle: Sensor v3, turn-off variant 2) | – | – | – | 25.4 | 153 | 25.3 |
| GAUUAUGCGAGCUUUAGGGACAUGAGGAUCACCCAUGUUCGUCUUAUUGGUCUAGGUACACUAACAUACCUAAAUCU [JMF 19] (puzzle: Sensor v3, turn-off variant 1) | – | – | – | 20.4 | 38.9 | 21.3 |
| GGUACUCAAAGAGUACCAAUACGAACAUGAGGAUCACCCAUGUAGGAUAUGCUACUCAAAGAGUAGCAGAAGGACGUGUGCCUU [Far Half Aptamer v4] (Eterna round: R96, puzzle: Exclusion NG 3) | – | 15.6 | – | – | – | – |
| AAUAACAGAGGAUAUACUAUUUUAUGUGUUUGUUAUUUUAAACAUGAGGAUCACCCAUGUAGAAGGCUGAAUGA [JMF 56] (puzzle: Exclusion 2) | – | – | – | – | 25 | – |
| UUGUUGUAUGUAGGAUAUGCGUAUUAUUAUUAUGCAGAAGGACAUGAGGAUCACCCAUGUAUAUUAUUAUUAUAUAUUAUAUAU [Title] (Eterna round: R96, puzzle: Exclusion NG 1) | – | 22 | – | – | – | – |
| UUUUAACAUGAGGAUCACCCAUGUCAGGAUAUGGUAUUUUUUUUUUUUUUUUUUUUUUCCAGAAGGGACAUUUU [My solution] (puzzle: Exclusion 1) | – | – | – | 16.5 | 11.3 | 15.9 |
| UUAUUACGAGGAUAUCGUUUUUAUCACAUGAGGAUCACCCAUGUUGUUUAUGUUUCGUUUCGAGAAGGCGUUUGUU [JR_E5_Sub066] (puzzle: Exclusion 5) | – | – | – | – | 24.4 | – |
| GGUCAAGAGCAGAUCCGCGCUGCCAUUGACCGCUCAUUUACAUGAGGAUCACCCAUGUUUUUUGCUCGUCUUACUAC [Inedsoinin] (puzzle: Sensor v3, turn-off variant 2) | – | – | – | 18.2 | 57.9 | 20.3 |
| AGUCCACUUACAAGCUUUUACAUGAGGAUCACCCAUGUGUGGGACCCUAAGGGUGCUCAUGACCGCUCCAUACUCUC [Eternabot (L1) Solution 4] (Eterna round: R97, puzzle: Sensor, turn-off variant 1) | 240 | – | 254 | – | – | – |
| GAUUGAGCUGUUAGGAUAUCCGCAGGCCGCCUGGAGGAGAAGGAACAUGAGGAUCACCCAUGUGCACGGGAGGC [Xemaesti] (Eterna round: R97, puzzle: Brourd's mod of Exclusion 4) | 13.4 | – | 15.8 | – | – | – |
| UCCCGAUACUAGGAUAUGAGUUCACAGGAACGAUCAGAAGGAGUUACAUGAGGAUCACCCAUGUGGGUGUAUUG [Eternabot (L1) Solution 37] (Eterna round: R97, puzzle: Exclusion 6) | 120 | – | 237 | – | – | – |
| GAUUAAUUAAUUAAUUAAUACAUGAGGAUCACCCAUGUAAUUUAAGAUCCUUAUACAAGCUUUGAUCUCGUAAUUAA [Stov1/4-A3] (Eterna round: R97, puzzle: Sensor, turn-off variant 1) | 120 | – | 120 | – | – | – |
| AUGGUACAUGAGGAUCACCCAUGUUAGGAUAUCGCGUGAGGUAAAACUUACACACACACGAGAAGGGACGACAU (puzzle: Exclusion 1) | – | – | – | – | 55.1 | – |
| UAUUUAAGAGGAUAUACAUGAGGAUCACCCAUGUAUAAUAAAAUACAUGAUUUUUUAUGUAGAAGGCUUGGGUA [-19.1, -18.3 kcal, 36% A] (Eterna round: R97, puzzle: Exclusion 3) | 72 | – | 21.1 | – | – | – |
| ACCACCUUAGUCAGGAUAUAGCUUCUAGCAAGAUACUAGAAGGGACAUGAGGAUCACCCAUGUAAAGGUGCUAA [Ramais] (puzzle: Brourd's mod of Exclusion 4) | – | – | – | 25.3 | 29 | 27.2 |
